Laboratory results published in PMC12369479.
Values joined by “and” are separate entries in the source; they are usually repeats but may differ in a detail not shown here. Equal values may be shown once.

Tests used:
[1] = substrate: OC[C@H]1O[C@@H](n2cnc3c(O)ncnc32)[C@H](O)[C@@H]1O; assay: ADK activity, coupled reaction with PK and LDH; format: biochemical, Zea mays; conditions: other: ZmADK2, 10 mM ATP, pH 7.5, 30 °C
Procedure: (§1) Substrate analogs were purchased from Sigma-Aldrich (www.sigmaaldrich.com). The ADK activity was measured spectrophotometrically on an Agilent 8453 UV-Vis spectrophotometer (www.agilent.com) at 30 °C using a coupled reaction with pyruvate kinase (PK) and lactate dehydrogenase (LDH) (www.sigmaaldrich.com) ([Blondin et al., 1994]). In this assay, PK converts ADP produced by ADK and phosphoenolpyruvate (PEP) to pyruvate. Subsequently, LDH then converts pyruvate to lactate using the coenzyme NADH, with the conversion monitored at 340 nm. The reaction was conducted in 50 mM Tris–HCl buffer at pH 7.5, containing 50 mM KCl, 6 mM MgCl2, 300 µM PEP, 200 µM NADH, 10 mM ATP, 2 U of PK, and 2.5 U of LDH, using various nucleoside substrates. Kinetic constants were determined using GraphPad Prism 8.0 software (www.graphpad.com). Each measurement was performed six times using repetitive purified enzymes. The activities of all five ADKs were also measured by HPLC ([Moffatt et al., 1991]). The reaction mixture comprised 50 mM Tris–HCl pH 7.5, 5 mM MgCl2, 0.5 mM DTT, 30 mM NaF, 5 mM ATP, 40 µM substrate, and 2–150 ng of purified ADK, depending on the isoform. The reaction was incubated at 30 °C for up to 1 h. […] Similarly, the conversion of cytokinin ribosides to monophosphates was followed on a LiChrosphere 60 RP-Select B (5 µm) LiChroCART column 125-4 column equilibrated with 10 mM triethylamine at pH 5.4 plus 10% methanol, and stepwise eluted with 100% methanol.

[2] = substrate: O=c1[nH]c(=O)c2ncn([C@@H]3O[C@H](CO)[C@@H](O)[C@H]3O)c2[nH]1; assay: ADK activity, coupled reaction with PK and LDH; format: biochemical, Zea mays; conditions: other: ZmADK2, 10 mM ATP, pH 7.5, 30 °C
Procedure: as §1

[3] = substrate: Nc1nc2c(ncn2[C@@H]2O[C@H](CO)[C@@H](O)[C@H]2O)c(=O)[nH]1; assay: ADK activity, coupled reaction with PK and LDH; format: biochemical, Zea mays; conditions: other: ZmADK2, 10 mM ATP, pH 7.5, 30 °C
Procedure: as §1

[4] = substrate: CC(C)=CCNc1ncnc2c1ncn2C1OC(CO)C(O)C1O; assay: ADK activity, coupled reaction with PK and LDH; format: biochemical, Zea mays; conditions: other: ZmADK2, 10 mM ATP, pH 7.5, 30 °C
Procedure: as §1

[5] = substrate: Nc1ncnc2c1ncn2[C@@H]1O[C@H](CO)[C@@H](O)[C@H]1O; assay: ADK activity, coupled reaction with PK and LDH; format: biochemical, Zea mays; conditions: other: ZmADK2, 10 mM ATP, pH 7.5, 30 °C
Procedure: as §1

[6] = substrate: Nc1ncnc2c1ncn2[C@@H]1O[C@H](CO)[C@@H](O)[C@@H]1O; assay: ADK activity, coupled reaction with PK and LDH; format: biochemical, Zea mays; conditions: other: ZmADK2, 10 mM ATP, pH 7.5, 30 °C
Procedure: as §1

[7] = substrate: Nc1ncnc2c1ncn2[C@@H]1O[C@H](CO)C[C@H]1O; assay: ADK activity, coupled reaction with PK and LDH; format: biochemical, Zea mays; conditions: other: ZmADK2, 10 mM ATP, pH 7.5, 30 °C
Procedure: as §1

[8] = substrate: Nc1ccn([C@@H]2O[C@H](CO)[C@@H](O)[C@H]2O)c(=O)n1; assay: ADK activity, coupled reaction with PK and LDH; format: biochemical, Zea mays; conditions: other: ZmADK2, 10 mM ATP, pH 7.5, 30 °C
Procedure: as §1

[9] = substrate: Nc1ncnc2c1ncn2[C@@H]1O[C@H](CO)[C@@H](O)[C@H]1O; assay: purified protein, by the assay type; conditions: pH 7.5, 30 °C
Procedure: The ADK activity was measured spectrophotometrically on an Agilent 8453 UV-Vis spectrophotometer (www.agilent.com) at 30 °C using a coupled reaction with pyruvate kinase (PK) and lactate dehydrogenase (LDH) (www.sigmaaldrich.com) ([Blondin et al., 1994]). In this assay, PK converts ADP produced by ADK and phosphoenolpyruvate (PEP) to pyruvate. Subsequently, LDH then converts pyruvate to lactate using the coenzyme NADH, with the conversion monitored at 340 nm. The reaction was conducted in 50 mM Tris–HCl buffer at pH 7.5, containing 50 mM KCl, 6 mM MgCl2, 300 µM PEP, 200 µM NADH, 10 mM ATP, 2 U of PK, and 2.5 U of LDH, using various nucleoside substrates. Kinetic constants were determined using GraphPad Prism 8.0 software (www.graphpad.com). […] The activities of all five ADKs were also measured by HPLC ([Moffatt et al., 1991]). The reaction mixture comprised 50 mM Tris–HCl pH 7.5, 5 mM MgCl2, 0.5 mM DTT, 30 mM NaF, 5 mM ATP, 40 µM substrate, and 2–150 ng of purified ADK, depending on the isoform. The reaction was incubated at 30 °C for up to 1 h. […] Similarly, the conversion of cytokinin ribosides to monophosphates was followed on a LiChrosphere 60 RP-Select B (5 µm) LiChroCART column 125-4 column equilibrated with 10 mM triethylamine at pH 5.4 plus 10% methanol, and stepwise eluted with 100% methanol.

[10] = substrate: CC(C)=CCNc1ncnc2c1ncn2C1OC(CO)C(O)C1O; assay: ADK activity, coupled reaction with PK and LDH; format: biochemical, Physcomitrella patens; conditions: other: PpADK1, 10 mM ATP, pH 7.5, 30 °C
Procedure: (§2) Substrate analogs were purchased from Sigma-Aldrich (www.sigmaaldrich.com). The ADK activity was measured spectrophotometrically on an Agilent 8453 UV-Vis spectrophotometer (www.agilent.com) at 30 °C using a coupled reaction with pyruvate kinase (PK) and lactate dehydrogenase (LDH) (www.sigmaaldrich.com) ([Blondin et al., 1994]). In this assay, PK converts ADP produced by ADK and phosphoenolpyruvate (PEP) to pyruvate. Subsequently, LDH then converts pyruvate to lactate using the coenzyme NADH, with the conversion monitored at 340 nm. The reaction was conducted in 50 mM Tris–HCl buffer at pH 7.5, containing 50 mM KCl, 6 mM MgCl2, 300 µM PEP, 200 µM NADH, 10 mM ATP, 2 U of PK, and 2.5 U of LDH, using various nucleoside substrates. Kinetic constants were determined using GraphPad Prism 8.0 software (www.graphpad.com). Each measurement was performed six times using repetitive purified enzymes. The activities of all five ADKs were also measured by HPLC ([Moffatt et al., 1991]). The reaction mixture comprised 50 mM Tris–HCl pH 7.5, 5 mM MgCl2, 0.5 mM DTT, 30 mM NaF, 5 mM ATP, 40 µM substrate, and 2–150 ng of purified ADK, depending on the isoform. The reaction was incubated at 30 °C for up to 1 h. […]

[11] = substrate: Nc1ncnc2c1ncn2[C@@H]1O[C@H](CO)[C@@H](O)[C@H]1O; assay: ADK activity, coupled reaction with PK and LDH; format: biochemical, Physcomitrella patens; conditions: other: PpADK1, 10 mM ATP, pH 7.5, 30 °C
Procedure: as §2

B1: ZmADK2 (Zea mays; T4S) (protein)
chain: MAASEGVLLGMGNPLLDISAVVDDAFLTKYDIKLNNAILAEEKHLPMYDELASKSNVEYIAGGATQNSIRVAQWMLQTPGATSYMGCIGKDKFGEEMKKNAQAAGVTAHYYEDETAPTGTCAVCVVGGERSLIANLSAANCYKSEHLKRPENWALVEKAKYIYIAGFFLTVSPDSIQLVAEHAAANNKVFLMNLSAPFICEFFRDAQEKVLPYADYIFGNETEAKIFAKVRGWETENIEEIALKISQLPLASGKQKRIAVITQGADPVVVAEDGKVKTFPVILLPKEKLVDTNGAGDAFVGGFLSQLVLGKGIEDCVRAGCYAANVIIQRPGCTYPEKPDFN
- Km [1]: 420 ± 44 µM
- kcat [1]: 0.57 ± 0.02 s⁻¹
- Km [2]: 178 ± 10 µM
- kcat [2]: 0.55 ± 0.01 s⁻¹
- Km [3]: 218 ± 23 µM
- kcat [3]: 0.48 ± 0.02 s⁻¹
- Km [4]: 9.8 ± 1.5 µM
- Km [5]: 0.65 ± 0.09 µM
- Km [6]: 524 ± 51 µM
- kcat [6]: 0.24 ± 0.02 s⁻¹
- Km [7]: 170 µM and 173 ± 11 µM
- kcat [7]: 0.43 ± 0.01 s⁻¹
- Km [8]: 313 ± 28 µM
- kcat [8]: 0.23 ± 0.01 s⁻¹

B2: ZmADK1 (Zea mays) (protein)
chain: MAASEGVLLGMGNPLLDISAVVDDAFLAKYDIKLNNAILAEEKHSPMYDELASNSNVEYIAGGATQNSIRVAQWMLQTPGATSYMGCIGKDKFGEEMKKNAQAAGVTAHYYEDETAPTGTCAVCVVGGERSLIANLSAANCYKSEHLKRPENWALVEKAKYIYIAGFFLTVSPDSIQLVAEHAAANNKVFLMNLSAPFICEFFYDAQEKVLPYADFIFGNETEAKIFAKVRGWETENVEEIALKISQLPLASGKQKRIAVITQGADPVVVAEDGKVKTFPVILLPKEKLVDTNGAGDAFVGGFLSRLVQGKSIEDCVTAGCYAANVVIQRPGCTYPEKPDFN
- Km ([9]; other: ZmADK1, 10 mM ATP): 0.62 ± 0.11 µM

B3: PpADK1 (Physcomitrium patens) (protein)
chain: MASEGVLLGMGNPLLDISCVVDDAFLEKYGLTLNNAILAEDKHLPMYKELAANPDVEYIAGGATQNTIRIAQWMLGESNATSYFGCVGKDEYGDRMFKLASEGGVNIRYDVDEDLPTGTCGVLVVKGERSLVANLSAANKYKIDHLKKPENWAFVEKAKYIYSAGFFLTVSPESMMTVAKHAAETGKYYMINLAAPFICQFFKDPLMELFPYVDFIFGNESEARAFAQVQGWETEDTKVIAVKLAALPKAGGTHKRVAVITQGTDPTIVAEDGKVTEFPVTPIPKEKLVDTNAAGDSFVGGFLSQLVLGKDIAQCVRAGNYAASVIIQRSGCTFPSKPSFESQ
notes: made in house; host or cells: E. coli T7 Express Iq
- Km [10]: 12.1 ± 2.5 µM
- Km [11]: 0.71 ± 0.05 µM

B4: PpADK2 (Physcomitrium patens) (protein)
chain: MASEGVLLGMGNPLLDISCVVDEAFLEKYGLTLNNAILAEDKHLPIYKELAGRPDVEYIAGGATQNTIRIAQWMLREPKATSYIGCVGKDEFGDRMYKLASEGGVNIQYDVDEELPTGTCGVLVVKGERSLVANLSAAKKYKIDHLKKPENWVCVERAKFIYSSGFFLAVSPESMMTVARHAAETGKYYMINLAAPFICQFKDLMELFPYVDFIFGNESEARTFAQVQGWETEDTKIIAVKLAALPKASGTHKRVAVITQGTDPTIVSVDGQVTEIPITVIPKNKLVDTNAAGDAFVGGFLSQLVLGKDIVECVRAGNYASSIIIQRSGCTFPLKPCFQSE
- Km ([9]; other: PpADK2, 10 mM ATP): 0.54 ± 0.05 µM
